In paper PMC4081077, “Sequence-specific interactions of Rep proteins with ssDNA in the AT-rich region of the plasmid replication origin”:

Columns and labels:
[1] = biological target: T1, TrfA-33 G254D/S267L (monomeric) (plasmid RK2, UniProt P07676 98-382, G254D;S267L); assay: EMSA; EMSA: 40 mM HEPES-KOH pH 8, 25 mM Tris-HCl pH 7.6, 100 mM NaCl, 4% sucrose, 4 mM DTT, 80 ug/ml BSA, 32 C 20 min, 1 pmol probe, 5-20 pmol Rep; SPR: HBS-EP (150 mM NaCl, 10 mM HEPES pH 7.4, 3 mM EDTA, 0.005% P20); conditions: protein: recombinant; label: Alexa555 3' tailed (EMSA); immobilized on streptavidin chip (SPR); fluorescent (gel filtration)
T1 sequence: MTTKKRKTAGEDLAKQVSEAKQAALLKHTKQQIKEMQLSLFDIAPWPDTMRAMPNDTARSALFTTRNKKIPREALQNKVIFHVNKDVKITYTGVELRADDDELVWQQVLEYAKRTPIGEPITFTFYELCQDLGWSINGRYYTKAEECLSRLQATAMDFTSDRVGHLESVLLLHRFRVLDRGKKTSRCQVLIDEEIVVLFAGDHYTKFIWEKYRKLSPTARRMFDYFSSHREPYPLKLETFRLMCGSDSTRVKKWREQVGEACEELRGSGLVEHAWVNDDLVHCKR

[2] = biological target: RepE R118P (monomeric) (plasmid F, UniProt P03856 1-251, R118P); assay: gel filtration; tripartite with plasmid cccDNA; EMSA: 40 mM HEPES-KOH pH 8, 25 mM Tris-HCl pH 7.6, 100 mM NaCl, 4% sucrose, 4 mM DTT, 80 ug/ml BSA, 32 C 20 min, 1 pmol probe, 5-20 pmol Rep; SPR: HBS-EP (150 m)
[3] = biological target: T1, TrfA-33 G254D/S267L (monomeric); assay: SPR; 0.1-1 uM TrfA; higher affinity than bottom ssDNA; EMSA: 40 mM HEPES-KOH pH 8, 25 mM Tris-HCl pH 7.6, 100 mM NaCl, 4% sucrose, 4 mM DTT, 80 ug/ml BSA, 32 C 20 min, 1 pmol probe, 5-20 pmol Rep; SPR: HBS-EP (150 mM NaCl, 10 mM HEPES pH 7.4, 3 mM EDTA, 0.005% P20); conditions: protein: recombinant; label: biotin; blunt
[4] = biological target: T1, TrfA-33 G254D/S267L (monomeric); assay: SPR; 0.1-1 uM TrfA; response over five times lower than wild type; EMSA: 40 mM HEPES-KOH pH 8, 25 mM Tris-HCl pH 7.6, 100 mM NaCl, 4% sucrose, 4 mM DTT, 80 ug/ml BSA, 32 C 20 min, 1 pmol probe, 5-20 pmol Rep; SPR: HBS-EP (150 mM NaCl, 10 mM HEPES pH 7.4, 3 mM EDTA, 0.005% P20); conditions: protein: recombinant; label: Alexa555 3' tailed (EMSA); immobilized on streptavidin chip (SPR); fluorescent (gel filtration)
[5] = biological target: T1, TrfA-33 G254D/S267L (monomeric); assay: EMSA; up to 20 pmol TrfA per 1 pmol probe; EMSA: 40 mM HEPES-KOH pH 8, 25 mM Tris-HCl pH 7.6, 100 mM NaCl, 4% sucrose, 4 mM DTT, 80 ug/ml BSA, 32 C 20 min, 1 pmol probe, 5-20 pmol Rep; SPR: HBS-EP (150 mM NaCl, 10 mM HEPES pH 7.4, 3 mM EDTA, 0.005% P20); conditions: protein: recombinant; label: Alexa555 3' tailed (EMSA); immobilized on streptavidin chip (SPR); fluorescent (gel filtration)

B1: ssDNA DUEoriV bottom swap M2-R (ssDNA)
DNA: CCACCGCATTGGACAGAAAATTGGACGAAAATAACCAATATTTATAAACCTTGTTTTTAACCAGGGCTGC
**Q.** Does B1 bind [1]?
**A.** no binding

B2: ssDNA DUEoriS bottom (ssDNA)
DNA: GCTCTAAAAAAGAAGATCTAAAAACTATAAAAAAAATAATTATAAAAATATCCCCGTG
**Q.** Does B2 bind [2]?
**A.** binds

B3: ssDNA DUEoriV bottom swap M1-R (ssDNA)
DNA: CCACCGCATTGGACAGAAAAAACCTGCTTTTAAACCAATATTTATAAACCTTGTTTTTAACCAGGGCTGC
**Q.** Does B3 bind [1]?
**A.** no binding

B4: dsDNA iterons (five RK2 iterons) (dsDNA)
DNA 1: CCTGCGGTATTGACACTTGAGGGGCGCGACTACTGACAGATGAGGGGCGCGATCCTTGACACTTGAGGGGCAGAGTGATGACAGATGAGGGGCGCACCTATTGACATTTGAGGGGCTGTCCACAGGCAG
DNA 2: CTGCCTGTGGACAGCCCCTCAAATGTCAATAGGTGCGCCCCTCATCTGTCATCACTCTGCCCCTCAAGTGTCAAGGATCGCGCCCCTCATCTGTCAGTAGTCGCGCCCCTCAAGTGTCAATACCGCAGG
**Q.** Does B4 bind [3]?
**A.** binds

B5: ssDNA DUEoriV bottom swap R (ssDNA)
DNA: CCACCGCATTGGACAGAAAATTGGACGAAAATTTGGTTATAAATTAAACCTTGTTTTTAACCAGGGCTGC
**Q.** For B5, which binding signal [4] is on record?
**A.** < 0.2 SPR response relative to N2

B6: ssDNA DUEoriV top (ssDNA)
DNA: CCACCGCTAACCTGTCTTTTAACCTGCTTTTAAACCAATATTTATAAACCTTGTTTTTAACCAGGGCTGC
**Q.** Does B6 bind [5]?
**A.** no binding
